From paper PMC8125372, “Refining the Design of Diblock Elastin-Like Polypeptides for Self-Assembly into Nanoparticles” (Polymers, 2021)

Molecular target: the molecule itself
Experiment: dynamic light scattering; 10 µM ELP in PBS on a heating ramp (7-40 °C in the legend, 7-37 °C in the methods), scattering angle 90°; nanoparticles between the CMT and Tt,bulk (18.5 and 27 °C for ELP-[*M1V3-40]-[I-90]; 19 and 31 °C for ELP-[*M1V3-60]-[I-90])

B1: ELP-[*M1V3-40]-[I-90] (other)
chain: MWVPGVGVPGMGVPGVGVPGVGVPGVGVPGMGVPGVGVPGVGVPGVGVPGMGVPGVGVPGVGVPGVGVPGMGVPGVGVPGVGVPGVGVPGMGVPGVGVPGVGVPGVGVPGMGVPGVGVPGVGVPGVGVPGMGVPGVGVPGVGVPGVGVPGMGVPGVGVPGVGVPGVGVPGMGVPGVGVPGVGVPGVGVPGMGVPGVGVPGVGIGVPGIGVPGIGVPGIGVPGIGVPGIGVPGIGVPGIGVPGIGVPGIGVPGIGVPGIGVPGIGVPGIGVPGIGVPGIGVPGIGVPGIGVPGIGVPGIGVPGIGVPGIGVPGIGVPGIGVPGIGVPGIGVPGIGVPGIGVPGIGVPGIGVPGIGVPGIGVPGIGVPGIGVPGIGVPGIGVPGIGVPGIGVPGIGVPGIGVPGIGVPGIGVPGIGVPGIGVPGIGVPGIGVPGIGVPGIGVPGIGVPGIGVPGIGVPGIGVPGIGVPGIGVPGIGVPGIGVPGIGVPGIGVPGIGVPGIGVPGIGVPGIGVPGIGVPGIGVPGIGVPGIGVPGIGVPGIGVPGIGVPGIGVPGIGVPGIGVPGIGVPGIGVPGIGVPGIGVPGIGVPGIGVPGIGVPGIGVPGIGVPGIGVPGIGVPGIGVPGIGVPGIGVPGIGVPGIGVPGIGVPGIGVPGY
modifications: Thioether side chain of Met residues oxidized into sulfoxide M(O) with H2O2 (11 Met); two Met residues were found oxidized into sulfone M(O2)
notes: N-terminal leader of the elastin-like polypeptide; C-terminal residue; also called oxidized ELP-[M1V3-40]-[I-90]; source: E. coli BL21 Star (DE3), purified (inverse transition cycling with ammonium sulfate, desalting), then oxidised with H2O2
B1: binds.
